Experiment [1] has as its target T1, αvβ3 integrin isolated from human placental extract (human, UniProt P06756 31-1048; P05106 27-788).
T1 construct: isolated on GRGDSPK-Sepharose; said to be primarily αvβ3
Put plainly: phage panning on coated integrin. As for the experimental part: (§1) In the first panning, the integrins were coated at 5 µg per well, and the library pool was incubated for 4 hours at 25° C. in TBS buffer containing 1% bovine serum albumin and 1 mM MnCl_2 (α_5β_1, α_vβ_3) 1 mM MgCl_2 ($\alphaIIb\beta_3$) or 1 mM CaCl_2 (α_vβ_5).

The target of experiment [2] is αvβ5 integrin isolated from human placental extract (human, UniProt P06756 31-1048; P18084 24-799). Put plainly: phage panning on coated integrin. As for the experimental part:
as §1

T1 sequence (P06756 31-1048, chain 1 of 2): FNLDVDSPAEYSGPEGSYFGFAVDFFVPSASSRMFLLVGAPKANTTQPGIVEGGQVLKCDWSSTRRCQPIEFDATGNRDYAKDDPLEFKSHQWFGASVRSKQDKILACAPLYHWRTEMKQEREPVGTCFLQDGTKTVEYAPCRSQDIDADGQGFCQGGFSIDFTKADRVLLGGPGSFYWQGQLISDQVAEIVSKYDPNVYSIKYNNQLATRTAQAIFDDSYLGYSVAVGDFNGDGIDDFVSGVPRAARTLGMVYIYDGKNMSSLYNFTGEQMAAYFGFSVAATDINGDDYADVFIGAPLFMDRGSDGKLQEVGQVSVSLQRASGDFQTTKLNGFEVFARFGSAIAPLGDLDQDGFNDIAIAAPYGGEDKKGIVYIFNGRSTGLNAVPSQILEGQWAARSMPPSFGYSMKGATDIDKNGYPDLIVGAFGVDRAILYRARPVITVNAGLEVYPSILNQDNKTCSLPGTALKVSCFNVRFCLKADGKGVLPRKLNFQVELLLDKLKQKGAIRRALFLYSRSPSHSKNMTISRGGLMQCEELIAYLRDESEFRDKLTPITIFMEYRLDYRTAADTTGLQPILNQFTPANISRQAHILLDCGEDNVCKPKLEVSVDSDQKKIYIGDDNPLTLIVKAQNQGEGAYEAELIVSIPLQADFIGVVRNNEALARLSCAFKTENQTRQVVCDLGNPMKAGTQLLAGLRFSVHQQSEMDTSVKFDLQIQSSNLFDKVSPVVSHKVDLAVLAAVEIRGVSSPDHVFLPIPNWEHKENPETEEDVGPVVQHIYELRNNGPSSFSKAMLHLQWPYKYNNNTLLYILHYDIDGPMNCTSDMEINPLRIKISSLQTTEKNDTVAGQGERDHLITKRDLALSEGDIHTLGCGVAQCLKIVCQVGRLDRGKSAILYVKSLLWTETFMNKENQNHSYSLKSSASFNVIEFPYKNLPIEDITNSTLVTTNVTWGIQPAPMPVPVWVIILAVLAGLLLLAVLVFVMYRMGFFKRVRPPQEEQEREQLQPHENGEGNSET
T1 sequence (P05106 27-788, chain 2 of 2): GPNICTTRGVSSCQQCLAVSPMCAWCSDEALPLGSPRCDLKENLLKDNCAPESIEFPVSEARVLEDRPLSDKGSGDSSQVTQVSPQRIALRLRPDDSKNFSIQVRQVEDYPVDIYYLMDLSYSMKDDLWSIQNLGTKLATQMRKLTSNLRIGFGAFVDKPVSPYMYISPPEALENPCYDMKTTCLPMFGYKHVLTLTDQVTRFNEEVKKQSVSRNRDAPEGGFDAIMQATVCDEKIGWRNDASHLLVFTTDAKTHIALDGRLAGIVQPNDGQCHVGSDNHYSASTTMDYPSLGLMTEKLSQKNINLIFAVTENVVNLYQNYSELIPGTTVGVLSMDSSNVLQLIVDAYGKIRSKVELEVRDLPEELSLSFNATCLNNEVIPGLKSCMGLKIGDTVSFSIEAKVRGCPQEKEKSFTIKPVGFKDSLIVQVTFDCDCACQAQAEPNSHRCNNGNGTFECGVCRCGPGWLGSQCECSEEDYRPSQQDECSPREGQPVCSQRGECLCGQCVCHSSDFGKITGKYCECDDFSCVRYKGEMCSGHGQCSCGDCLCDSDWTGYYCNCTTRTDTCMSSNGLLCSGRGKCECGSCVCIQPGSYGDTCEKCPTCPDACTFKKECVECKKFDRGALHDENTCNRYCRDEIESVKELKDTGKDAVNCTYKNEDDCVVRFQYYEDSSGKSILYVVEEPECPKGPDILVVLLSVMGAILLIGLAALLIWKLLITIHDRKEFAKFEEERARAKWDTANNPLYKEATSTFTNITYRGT
αvβ5 integrin isolated from human placental extract, sequence (P06756 31-1048, chain 1 of 2): as the sequence (P06756 31-1048, chain 1 of 2) above
αvβ5 integrin isolated from human placental extract, sequence (P18084 24-799, chain 2 of 2): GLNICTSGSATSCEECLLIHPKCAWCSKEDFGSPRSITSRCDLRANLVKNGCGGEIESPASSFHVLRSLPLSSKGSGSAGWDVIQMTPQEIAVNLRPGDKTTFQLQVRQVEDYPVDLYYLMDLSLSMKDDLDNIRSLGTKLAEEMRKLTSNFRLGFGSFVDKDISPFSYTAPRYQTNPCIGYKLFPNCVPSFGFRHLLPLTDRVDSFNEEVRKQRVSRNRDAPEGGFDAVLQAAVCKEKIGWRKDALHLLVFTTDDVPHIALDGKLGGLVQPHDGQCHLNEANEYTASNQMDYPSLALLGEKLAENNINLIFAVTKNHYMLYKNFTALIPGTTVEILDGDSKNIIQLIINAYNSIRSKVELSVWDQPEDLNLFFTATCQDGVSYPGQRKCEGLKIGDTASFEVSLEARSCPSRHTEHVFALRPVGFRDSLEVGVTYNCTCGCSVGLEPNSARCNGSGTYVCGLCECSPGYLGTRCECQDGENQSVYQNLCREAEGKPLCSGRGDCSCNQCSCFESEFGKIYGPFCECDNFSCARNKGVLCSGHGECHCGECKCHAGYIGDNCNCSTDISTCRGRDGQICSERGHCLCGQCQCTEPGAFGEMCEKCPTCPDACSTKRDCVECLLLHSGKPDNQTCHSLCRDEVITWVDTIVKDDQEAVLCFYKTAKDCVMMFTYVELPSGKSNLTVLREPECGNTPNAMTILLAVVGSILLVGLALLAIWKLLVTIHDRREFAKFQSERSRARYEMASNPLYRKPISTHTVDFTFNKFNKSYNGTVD

B1: CISRGDTFC phage (αvβ3 selection) (peptide)
peptide: CISRGDTFC
notes: on fuse 5 phage, fused to pIII
As to B1, the binding result in experiment [1] is “binds”.

B2: CRGDHGTLC phage (peptide)
peptide: CRGDHGTLC
notes: as for B1
As for B2, in experiment [1], the binding result is recorded as “binds”.

B3: CNRRGDNWGC phage (peptide)
peptide: CNRRGDNWGC
notes: as for B1
Regarding B3, in experiment [1], the binding result is recorded as “binds”.

B4: CRGDGRNC phage (peptide)
peptide: CRGDGRNC
notes: as for B1
As for B4, the binding result in experiment [1] is “binds”.

B5: CDRGDSQSC phage (peptide)
peptide: CDRGDSQSC
notes: as for B1
For B5, the binding result in experiment [1] is “binds”.

B6: CKTPGRLDC phage (peptide)
peptide: CKTPGRLDC
notes: as for B1
For the molecule B6, in experiment [1], the binding result is listed as “binds”.

B7: CYSLGFLVC phage (peptide)
peptide: CYSLGFLVC
notes: as for B1
Consider B7, for which the binding result in experiment [1] is “binds”.

B8: CRGDVFLC phage (peptide)
peptide: CRGDVFLC
notes: as for B1
In the case of B8, the binding result in experiment [2] was “binds”.

B9: CWTRGDSFC phage (peptide)
peptide: CWTRGDSFC
notes: as for B1
Turning to B9, the binding result in experiment [2] is “binds”.

B10: CPSRGDALC phage (peptide)
peptide: CPSRGDALC
notes: as for B1
As to B10, the binding result in experiment [1] is “binds”.

B11: CRGDTVYAC phage (peptide)
peptide: CRGDTVYAC
notes: as for B1
For the molecule B11, the binding result in experiment [1] was “binds”.

B12: CEMRGDTFC phage (peptide)
peptide: CEMRGDTFC
notes: as for B1
Consider B12, for which the binding result in experiment [2] is “binds”.

B13: CWRGDTPC phage (peptide)
peptide: CWRGDTPC
notes: as for B1
For B13, in experiment [1], the binding result is recorded as “binds”.

B14: CVRRGDAFC phage (peptide)
peptide: CVRRGDAFC
notes: as for B1
Regarding B14, the binding result in experiment [1] is recorded as “binds”.

B15: CHTRGDTFC phage (peptide)
peptide: CHTRGDTFC
notes: as for B1
In the case of B15, the binding result in experiment [2] is on record as “binds”.

B16: CNIRGDKIC phage (peptide)
peptide: CNIRGDKIC
notes: as for B1
For B16, the binding result in experiment [1] is on record as “binds”.

B17: CPRGDSTLC phage (peptide)
peptide: CPRGDSTLC
notes: as for B1
Take B17: the binding result in experiment [1] is reported as “binds”.

B18: CRGDKGWNC phage (peptide)
peptide: CRGDKGWNC
notes: as for B1
B18: the binding result in experiment [1] was “binds”.

B19: CEGRGDSFC phage (peptide)
peptide: CEGRGDSFC
notes: as for B1
Turning to B19, the binding result in experiment [2] is on record as “binds”.

B20: CEPRGDSFC phage (peptide)
peptide: CEPRGDSFC
notes: as for B1
For the molecule B20, the binding result in experiment [2] was “binds”.

B21: CVRRGDVFC phage (peptide)
peptide: CVRRGDVFC
notes: as for B1
Turning to B21, the binding result in experiment [2] was “binds”.

B22: CRGDNTFGC phage (peptide)
peptide: CRGDNTFGC
notes: as for B1
Consider B22, for which the binding result in experiment [1] is given as “binds”.

B23: CRGDSLRC phage (peptide)
peptide: CRGDSLRC
notes: as for B1
As to B23, in experiment [1], the binding result is listed as “binds”.

B24: CRGDSHLQC phage (peptide)
peptide: CRGDSHLQC
notes: as for B1
For B24, the binding result in experiment [1] was “binds”.

B25: CSRGDTYLC phage (peptide)
peptide: CSRGDTYLC
notes: as for B1
Turning to B25, the binding result in experiment [1] is “binds”.

B26: CRVRGDSWC phage (peptide)
peptide: CRVRGDSWC
notes: as for B1
For B26, in experiment [1], the binding result is “binds”.

B27: CNARGDGFC phage (peptide)
peptide: CNARGDGFC
notes: as for B1
Take B27: the binding result in experiment [1] is “binds”.

B28: CLRGDRVC phage (peptide)
peptide: CLRGDRVC
notes: as for B1
As to B28, the binding result in experiment [1] is “binds”.

B29: CRGDGIRFC phage (peptide)
peptide: CRGDGIRFC
notes: as for B1
Turning to B29, the binding result in experiment [1] was “binds”.

B30: CISRGDTFC phage (αvβ5 selection) (peptide)
peptide: CISRGDTFC
notes: as for B1
On to B30, for which the binding result in experiment [2] was “binds”.

B31: CFRGDDRKC phage (peptide)
peptide: CFRGDDRKC
notes: as for B1
Regarding B31, the binding result in experiment [1] is given as “binds”.

B32: CSRGDGRC phage (peptide)
peptide: CSRGDGRC
notes: as for B1
Regarding B32, in experiment [1], the binding result is given as “binds”.

B33: CQARGDRPRC phage (peptide)
peptide: CQARGDRPRC
notes: as for B1
As to B33, the binding result in experiment [1] is “binds”.

B34: CVTRGDNFC phage (peptide)
peptide: CVTRGDNFC
notes: as for B1
Turning to B34, in experiment [2], the binding result is “binds”.

B35: CVLRGDNFC phage (peptide)
peptide: CVLRGDNFC
notes: as for B1
Consider B35, for which the binding result in experiment [2] is given as “binds”.

B36: CSRGDGAIC phage (peptide)
peptide: CSRGDGAIC
notes: as for B1
B36: in experiment [1], the binding result was “binds”.

B37: CARRLDAPC phage (peptide)
peptide: CARRLDAPC
notes: as for B1
Take B37: the binding result in experiment [1] is on record as “binds”.

B38: CRGDAWPGC phage (peptide)
peptide: CRGDAWPGC
notes: as for B1
Take B38: in experiment [1], the binding result is recorded as “binds”.

B39: CLSRGDVVC phage (peptide)
peptide: CLSRGDVVC
notes: as for B1
Consider B39, for which the binding result in experiment [1] is recorded as “binds”.

B40: CWRGDRAC phage (peptide)
peptide: CWRGDRAC
notes: as for B1
For B40, in experiment [1], the binding result was “binds”.

B41: CNARGDKLC phage (peptide)
peptide: CNARGDKLC
notes: as for B1
As for B41, the binding result in experiment [1] is “binds”.

B42: CTTRGDSFC phage (peptide)
peptide: CTTRGDSFC
notes: as for B1
For the molecule B42, the binding result in experiment [1] is “binds”.

B43: CTTRSDSFC phage (peptide)
peptide: CTTRSDSFC
notes: as for B1
B43: the binding result in experiment [1] is on record as “binds”.

B44: CGRGDSHHC phage (peptide)
peptide: CGRGDSHHC
notes: as for B1
Take B44: the binding result in experiment [1] is “binds”.

B45: CRGDLAWVC phage (peptide)
peptide: CRGDLAWVC
notes: as for B1
For B45, the binding result in experiment [1] is recorded as “binds”.

B46: CLRRGDSGC phage (peptide)
peptide: CLRRGDSGC
notes: as for B1
Take B46: the binding result in experiment [1] is “binds”.

B47: CWSISPYFC phage (peptide)
peptide: CWSISPYFC
notes: as for B1
As to B47, the binding result in experiment [1] is “binds”.

B48: CVTRGDHFC phage (peptide)
peptide: CVTRGDHFC
notes: as for B1
B48: in experiment [1], the binding result is reported as “binds”.

B49: CGRGDTPTC phage (peptide)
peptide: CGRGDTPTC
notes: as for B1
Turning to B49, in experiment [2], the binding result was “binds”.

B50: CVVRGDTFC phage (peptide)
peptide: CVVRGDTFC
notes: as for B1
Regarding B50, the binding result in experiment [2] was “binds”.

B51: CLVRGDSLC phage (peptide)
peptide: CLVRGDSLC
notes: as for B1
Regarding B51, the binding result in experiment [2] is “binds”.

B52: CDLRGDTYC phage (peptide)
peptide: CDLRGDTYC
notes: as for B1
As for B52, the binding result in experiment [2] was “binds”.

B53: CLVLPSTGC phage (peptide)
peptide: CLVLPSTGC
notes: as for B1
In the case of B53, the binding result in experiment [1] was “binds”.

B54: CGRGDLIHC phage (peptide)
peptide: CGRGDLIHC
notes: as for B1
As to B54, the binding result in experiment [1] was “binds”.

B55: CTRGDSLDC phage (peptide)
peptide: CTRGDSLDC
notes: as for B1
As for B55, in experiment [1], the binding result is given as “binds”.

B56: CYARGDSFC phage (peptide)
peptide: CYARGDSFC
notes: as for B1
Turning to B56, in experiment [2], the binding result is reported as “binds”.

B57: CTRGDSIFC phage (peptide)
peptide: CTRGDSIFC
notes: as for B1
Consider B57, for which the binding result in experiment [1] was “binds”.

B58: CPDLLAQSC phage (peptide)
peptide: CPDLLAQSC
notes: as for B1
With B58, the binding result in experiment [1] was “binds”.

B59: CAGRGDALC phage (peptide)
peptide: CAGRGDALC
notes: as for B1
With B59, the binding result in experiment [1] is recorded as “binds”.

B60: CTRRGDATC phage (peptide)
peptide: CTRRGDATC
notes: as for B1
With B60, the binding result in experiment [1] is listed as “binds”.

B61: CRGDSFVGC phage (peptide)
peptide: CRGDSFVGC
notes: as for B1
As for B61, in experiment [1], the binding result is on record as “binds”.

B62: CELRGDSAC phage (peptide)
peptide: CELRGDSAC
notes: as for B1
For B62, the binding result in experiment [2] is listed as “binds”.

B63: CRGDTYLIC phage (peptide)
peptide: CRGDTYLIC
notes: as for B1
With B63, the binding result in experiment [2] is on record as “binds”.

B64: CSPRGDAGC phage (peptide)
peptide: CSPRGDAGC
notes: as for B1
On to B64, for which the binding result in experiment [1] is “binds”.

B65: CLRGDIANC phage (peptide)
peptide: CLRGDIANC
notes: as for B1
Turning to B65, the binding result in experiment [1] is recorded as “binds”.

B66: CEVRGDRIC phage (peptide)
peptide: CEVRGDRIC
notes: as for B1
Turning to B66, in experiment [1], the binding result is “binds”.

Source of the values: patent publication US7067619 (LA JOLLA CANCER RESEARCH FOUNDATION, dated 2006).
